Target: T1, Escherichia coli RecB (E. coli, UniProt P08394 1-1180)
T1 sequence: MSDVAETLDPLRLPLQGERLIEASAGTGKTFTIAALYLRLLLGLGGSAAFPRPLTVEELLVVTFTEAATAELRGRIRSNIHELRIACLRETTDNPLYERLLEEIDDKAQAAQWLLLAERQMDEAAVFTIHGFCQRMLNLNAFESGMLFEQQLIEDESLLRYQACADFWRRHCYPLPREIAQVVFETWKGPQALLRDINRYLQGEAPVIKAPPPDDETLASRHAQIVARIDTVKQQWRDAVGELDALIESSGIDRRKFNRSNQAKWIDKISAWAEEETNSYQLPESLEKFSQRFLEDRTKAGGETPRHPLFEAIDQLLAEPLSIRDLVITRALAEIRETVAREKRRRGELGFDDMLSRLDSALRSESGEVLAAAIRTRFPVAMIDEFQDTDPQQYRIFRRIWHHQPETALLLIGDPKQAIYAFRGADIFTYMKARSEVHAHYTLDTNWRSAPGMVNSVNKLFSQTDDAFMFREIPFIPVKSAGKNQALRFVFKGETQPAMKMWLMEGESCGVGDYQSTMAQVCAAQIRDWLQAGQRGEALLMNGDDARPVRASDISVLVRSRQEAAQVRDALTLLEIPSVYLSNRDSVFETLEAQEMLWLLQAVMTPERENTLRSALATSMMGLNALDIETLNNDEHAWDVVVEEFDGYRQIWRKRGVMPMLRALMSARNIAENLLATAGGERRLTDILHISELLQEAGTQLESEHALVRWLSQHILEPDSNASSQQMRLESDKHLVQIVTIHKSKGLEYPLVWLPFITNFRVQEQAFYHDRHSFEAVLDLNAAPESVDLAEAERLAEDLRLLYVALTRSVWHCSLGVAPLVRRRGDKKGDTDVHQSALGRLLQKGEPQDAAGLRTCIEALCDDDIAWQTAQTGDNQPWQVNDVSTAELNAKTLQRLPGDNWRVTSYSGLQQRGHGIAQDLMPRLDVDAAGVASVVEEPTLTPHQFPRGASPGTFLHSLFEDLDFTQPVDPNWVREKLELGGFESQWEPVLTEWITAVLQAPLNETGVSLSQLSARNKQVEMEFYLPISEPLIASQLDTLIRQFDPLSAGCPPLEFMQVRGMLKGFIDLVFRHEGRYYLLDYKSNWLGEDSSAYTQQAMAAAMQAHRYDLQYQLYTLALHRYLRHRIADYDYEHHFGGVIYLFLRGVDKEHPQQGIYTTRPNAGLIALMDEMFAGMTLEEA
Test: reconstitution of the complex from separately purified subunits

- binding result: binds
B1: Escherichia coli RecC (natural protein)
chain: MLRVYHSNRLDVLEALMEFIVERERLDDPFEPEMILVQSTGMAQWLQMTLSQKFGIAANIDFPLPASFIWDMFVRVLPEIPKESAFNKQSMSWKLMTLLPQLLEREDFTLLRHYLTDDSDKRKLFQLSSKAADLFDQYLVYRPDWLAQWETGHLVEGLGEAQAWQAPLWKALVEYTHQLGQPRWHRANLYQRFIETLESATTCPPGLPSRVFICGISALPPVYLQALQALGKHIEIHLLFTNPCRYYWGDIKDPAYLAKLLTRQRRHSFEDRELPLFRDSENAGQLFNSDGEQDVGNPLLASWGKLGRDYIYLLSDLESSQELDAFVDVTPDNLLHNIQSDILELENRAVAGVNIEEFSRSDNKRPLDPLDSSITFHVCHSPQREVEVLHDRLLAMLEEDPTLTPRDIIVMVADIDSYSPFIQAVFGSAPADRYLPYAISDRRARQSHPVLEAFISLLSLPDSRFVSEDVLALLDVPVLAARFDITEEGLRYLRQWVNESGIRWGIDDDNVRELELPATGQHTWRFGLTRMLLGYAMESAQGEWQSVLPYDESSGLIAELVGHLASLLMQLNIWRRGLAQERPLEEWLPVCRDMLNAFFLPDAETEAAMTLIEQQWQAIIAEGLGAQYGDAVPLSLLRDELAQRLDQERISQRFLAGPVNICTLMPMRSIPFKVVCLLGMNDGVYPRQLAPLGFDLMSQKPKRGDRSRRDDDRYLFLEALISAQQKLYISYIGRSIQDNSERFPSVLVQELIDYIGQSHYLPGDEALNCDESEARVKAHLTCLHTRMPFDPQNYQPGERQSYAREWLPAASQAGKAHSEFVQPLPFTLPETVPLETLQRFWAHPVRAFFQMRLQVNFRTEDSEIPDTEPFILEGLSRYQINQQLLNALVEQDDAERLFRRFRAAGDLPYGAFGEIFWETQCQEMQQLADRVIACRQPGQSMEIDLACNGVQITGWLPQVQPDGLLRWRPSLLSVAQGMQLWLEHLVYCASGGNGESRLFLRKDGEWRFPPLAAEQALHYLSQLIEGYREGMSAPLLVLPESGGAWLKTCYDAQNDAMLDDDSTLQKARTKFLQAYEGNMMVRGEGDDIWYQRLWRQLTPETMEAIVEQSQRFLLPLFRFNQS
